# Results as given in PMC3041754, “Functional Mutation of Multiple Solvent-Exposed Loops in the Ecballium elaterium Trypsin Inhibitor-II Cystine Knot Miniprotein” (PLoS ONE, 2011).
# Like-named read-outs stand apart in the source and are kept apart here. Where a SMILES comes first, the peptide text is derived from it. Bridges are numbered along the chain shown (N, C = ends). Where no end group is shown, it is not given here. The star is where a group is joined. DOTA = O=C(O)CN1CCN(CC(=O)O)CCN(CC(=O)*)CCN(CC(=O)O)CC1
# Tests used:
# [1] = Serum stability in mouse serum (radio-HPLC); type: in vitro ADME; conditions: 50% mouse serum, 37°C, reversed-phase radio-HPLC (Vydac C18), area under the entire peak
# Description: (§1) Aliquots containing up to 400 µCi of ^64Cu-DOTA-knottin 3-4A were incubated in 50% mouse serum for up to 24 h. At various time points, samples were mixed with an equal volume of 99.9% water/0.1% TFA, further acidified with ∼1% (v/v) TFA, and centrifuged to remove precipitants. Soluble fractions were filtered with a 0.2 µm microcentrifuge filter (Corning Costar Spin-X filter) and analyzed by reversed-phase radio-HPLC using a Vydac C18 column. For metabolic stability analysis, anesthetized nude mice bearing U87MG tumor xenografts were injected with 200–400 µCi of ^64Cu-DOTA-knottin 3-4A via the tail vein, and were euthanized at 1 h post injection. Tumor, kidney, and liver tissues were homogenized with a mortar/pestle in 1 ml DMF. The lysates were acidified, centrifuged, and filtered using a 0.2 µm Costar Spin-X microcentrifuge filter to isolate soluble metabolites. Filtrates were injected onto a Vydac C18 column and analyzed by reversed-phase HPLC. Fractions were collected every 1 min and analyzed by gamma counting to determine the counts per minute (cpm). Urine samples were collected 1 h post injection and were also analyzed by radio-HPLC. The intact radiotracer elutes at approximately 15 min, and the major hydrophilic metabolites and free copper elute with the column dead volume.
# U87MG tumor xenografts [2] = assay: MicroPET imaging in U87MG xenograft mice; type: in vivo, mouse
# Description: (§2) Animal procedures were carried out according to a protocol approved by Stanford University Administrative Panels on Laboratory Animal Care (APLAC Protocol 11580). U87MG glioblastoma cells were maintained at 37°C/5% CO2 in Dulbecco's Modified Eagle Medium, 10% heat-inactivated fetal bovine serum, and penicillin-streptomycin (all from Invitrogen). Female athymic nude mice (nu/nu), obtained at 4–6 weeks of age (Charles River Laboratories, Inc., Wilmington, MA), were injected subcutaneously in the right or left shoulder with ∼10^7 U87MG cells suspended in 100 µL of PBS. Mice were used for in vivo imaging studies when their tumors reached approximately 10 millimeters in diameter.
# U87MG tumor-bearing mice (n = 3 or more for each probe) were injected with ∼100 µCi (∼0.5 nmol) of probe via the tail vein and imaged with a microPET R4 rodent model scanner (Siemens Medical, Knoxville, TN) using 5 min static scans. Images were reconstructed by a two-dimensional ordered expectation maximum subset algorithm and calibrated as previously described. ROIs were drawn over the tumor on decay-corrected whole body images using ASIPro VM software (Siemens Medical). ROIs were converted to counts/g/min, and %ID/g values were determined assuming a tissue density of 1 g/mL. No attenuation correction was performed. For the blocking experiments, mice were co-injected with 330 µg (∼0.5 µmol) of unlabeled c(RGDyK), a pentapeptide that binds to αvβ3 and αvβ5 integrins, [62] at a similar receptor binding site as the engineered knottin peptides.
# [3] = Biodistribution in U87MG xenograft mice (gamma counting); type: in vivo, mouse; conditions: female, athymic nude (nu/nu), mouse, iv, total radioactivity; for tissue to tissue ratio at 4 h: U87MG xenograft mice
# Description: as §2
# (§3) Anesthetized nude mice bearing U87MG tumor xenografts were injected with ∼50–100 µCi (∼0.25–0.5 nmol) of ^64Cu-DOTA-knottin 3-4A via the tail vein, and were euthanized at 1, 4, and 24 h post injection. Blood, bone, brain, heart, kidney, liver, lung, muscle, pancreas, skin, spleen, and tumor tissue were removed and weighed, and their radioactivity levels (counts per minute) were measured by gamma counting. The radioactivity uptake in the tumor and normal tissue was reported as the percent injected dose per gram (%ID/g) of tissue and represent the mean and standard deviation of experiments performed on three mice. For each mouse, the activity of tissue samples was calibrated against a pre-measured aliquot of the radiotracer and normalized to the whole bodyweight and to the residual radioactivity present in the tail. To test integrin-targeting specificity, U87MG tumor-bearing mice (n = 3) were co-injected with ^64Cu-DOTA-knottin 3-4A and 330 µg (∼0.5 µmol) of unlabeled c(RGDyK), and biodistribution of the radiolabeled peptide was determined 1 h after injection.
# U87MG tumor xenografts [4] = assay: as above; type: in vivo, mouse
# Description: as §2, §3
# [5] = In vivo metabolic stability in U87MG xenograft mice (radio-HPLC); set-up: species or system mouse
# Description: as §1
# [6] = tested on: MDA-MB-435 melanoma xenograft; assay: Tumor uptake in MDA-MB-435 melanoma xenograft model; type: in vivo; conditions: lower αvβ3 integrin levels, data not shown
# [7] = tested on: integrin receptors expressed on U87MG glioblastoma cells; assay: Competition binding with 125I-echistatin to U87MG cells; set-up: species or system human; conditions: competition with 0.06 nM 125I-echistatin, 2×10^5 U87MG cells, IBB, room temperature, 3 h, gamma counting; average ± SD of experiments on three separate days
# Description: Competition binding assays were performed as previously described, [60] to measure the relative binding affinities of engineered knottin peptides and echistatin. Briefly, 2×10^5 U87MG or K562 cells were incubated with 0.06 nM ^125I-labeled echistatin and varying concentrations of peptides in IBB at room temperature for 3 h. The cell-bound radioactivity remaining after washing was determined by gamma-counting. Half-maximal inhibitory concentration (IC50) values were determined by non-linear regression analysis using KaleidaGraph software (Synergy Software), and are presented as the average of experiments performed on three separate days.
# [8] = tested on: integrin receptors expressed on U87MG glioblastoma cells; conditions: read-out: IC50, competition binding of 125I-echistatin to U87MG cells; cited from earlier work
# Description: The engineered knottin peptides were tested for their ability to compete with ^125I-echistatin for binding to integrin receptors expressed on U87MG glioblastoma cells, which express ∼10^5 αvβ3 integrin receptors per cell. Echistatin, a polypeptide found in snake venom, binds to multiple integrin receptors with high affinity, [27] and was used as a positive control. […] Both engineered loops were capable of binding to integrins with high affinity, as confirmed by measurements performed with knottins containing scrambled RDG control loops. […] In one example, c(RGDyK) dimers and higher order oligomers have been created by chemical conjugation through addition of a glutamate branching residue.
# [9] = U87MG xenograft mice, summary of imaging and biodistribution
compound,measurement,setting,value
"CSCC[C@@H]1NC(=O)[C@H](CC(=O)O)NC(=O)CNC(=O)[C@H](CCCNC(=N)N)NC(=O)[C@H](C)NC(=O)[C@H](CCC(=O)O)NC(=O)[C@H](CCCNC(=N)N)NC(=O)[C@@H]2CSSC[C@@H]3NC(=O)[C@H](CO)NC(=O)[C@H]([C@@H](C)O)NC(=O)[C@@H]4CCCN4C(=O)[C@H](C)NC(=O)[C@H](Cc4c[nH]c5ccccc45)NC(=O)[C@H](CC(=O)O)NC(=O)CNC(=O)[C@H](CCCNC(=N)N)NC(=O)CNC(=O)[C@H](CCC(N)=O)NC(=O)[C@@H]4CCCN4C(=O)[C@@H](NC(=O)CNC(=O)CN4CCN(CC(=O)O)CCN(CC(=O)O)CCN(CC(=O)O)CC4)CSSC[C@H](NC(=O)CNC(=O)[C@H](C)NC(=O)[C@H](CC(C)C)NC(=O)[C@H](CSSC[C@@H](C(=O)NCC(N)=O)NC(=O)[C@H]([C@@H](C)O)NC(=O)[C@H](CCCNC(=N)N)NC(=O)[C@@H]4CCCN4C1=O)NC(=O)[C@H](CC(=O)O)NC(=O)[C@H](CO)NC(=O)[C@H](CC(=O)O)NC(=O)[C@H](CCC(N)=O)NC(=O)[C@H](CO)NC3=O)C(=O)N[C@@H](C(C)C)C(=O)N2 [^64Cu-DOTA-knottin 3-4A, metal not drawn] ({DOTA}-GCPQGRGDWAPTSCSQDSDCLAGCVCREARGDMPRTCG-NH2; disulfide 2-24, 14-26, 20-37)",remaining at 4 h,"[1]; 4 h, read-out: intact probe remaining in serum, 4 h",55%
same,"intact probe remaining in serum, 24 h",[1]; 24 h,~30%
same,remaining at 24 h,"[1]; 24 h, read-out: intact probe remaining in serum, 24 h",30%
same,"kidney uptake, microPET, 1 h post injection",U87MG tumor xenografts [2]; U87MG xenograft mice,10-12 %ID/g
same,"kidney uptake, microPET, 24 h post injection",U87MG tumor xenografts [2]; U87MG xenograft mice,3–4 %ID/g
same,"liver uptake, microPET, throughout the imaging study","U87MG tumor xenografts [2]; U87MG xenograft mice, 1-24 h",~2 %ID/g
same,"kidney uptake, 1−4 h post-injection (summary in discussion)",U87MG tumor xenografts [2]; [9],8–12 %ID/g
same,"kidney uptake, 24 h (summary in discussion)",U87MG tumor xenografts [2]; [9],2–4 %ID/g
same,liver uptake (summary in discussion),U87MG tumor xenografts [2]; [9],1–2 %ID/g
same,"tumor uptake, microPET, 1 h post injection","U87MG tumor xenografts [2]; U87MG xenograft nude mice, tail vein ∼100 µCi, n = 3, mean ± SD",3.51±0.83 %ID/g
same,"tumor uptake, microPET, 24 h post injection","U87MG tumor xenografts [2]; U87MG xenograft nude mice, tail vein, n = 3, mean ± SD",1.97±0.24 %ID/g
same,"tumor uptake, microPET, 1 h post injection, blocked","U87MG tumor xenografts [2]; co-injection of 1000-fold molar excess of unlabeled c(RGDyK) (330 µg), p<0.05",0.53± 0.03 %ID/g
same,tumor washout rate,"[3]; calculated from 1 h and 24 h tumor radioactivity, read-out: radiotracer washout rate from tumor, biodistribution",0.06 %ID/g
same,tissue to tissue ratio at 4 h,"[3]; tumor / muscle, read-out: tumor-to-muscle (T/M) ratio, 4 h post injection",31 ± 7
same,tissue to tissue ratio at 4 h,"[3]; tumor / whole blood, read-out: tumor-to-blood (T/B) ratio, 4 h post injection",27 ± 3
same,"muscle radioactivity, biodistribution",U87MG tumor xenografts [4]; U87MG xenograft mice,< 0.4 %ID/g
same,"heart radioactivity, biodistribution, throughout the study","U87MG tumor xenografts [4]; U87MG xenograft mice, 1-24 h",~0.3 %ID/g
same,"liver radioactivity, biodistribution, 1 h post injection","U87MG tumor xenografts [4]; U87MG xenograft mice, n = 3",~1 %ID/g
same,"liver radioactivity, biodistribution, 24 h post injection","U87MG tumor xenografts [4]; U87MG xenograft mice, n = 3",~2 %ID/g
same,"lung radioactivity, biodistribution, 1 h post injection","U87MG tumor xenografts [4]; U87MG xenograft mice, n = 3",~1 %ID/g
same,"lung radioactivity, biodistribution, 24 h post injection","U87MG tumor xenografts [4]; U87MG xenograft mice, n = 3",~0.6 %ID/g
same,"kidney radioactivity, biodistribution, 24 h post injection","U87MG tumor xenografts [4]; U87MG xenograft mice, n = 3, mean ± SD",2.67±0.22 %ID/g
same,"tumor uptake, biodistribution, 24 h post injection","U87MG tumor xenografts [4]; U87MG xenograft nude mice, gamma counting, n = 3, mean ± SD",2.56±0.40 %ID/g
same,"tumor uptake, biodistribution, 1 h post injection","U87MG tumor xenografts [4]; U87MG xenograft nude mice, tail vein ∼50–100 µCi, gamma counting, n = 3, mean ± SD",3.92±0.70 %ID/g
same,"tumor uptake, biodistribution, 1 h post injection, blocked","U87MG tumor xenografts [4]; co-injection of 1000-fold molar excess of unlabeled c(RGDyK) (330 µg), n = 3, p<0.05",0.66±0.17 %ID/g
same,"intact radiotracer recoverable from liver, 1 h post injection","[5]; U87MG xenograft mice, tail vein 200–400 µCi, liver homogenate in DMF, reversed-phase HPLC and gamma counting",< 40%
same,"intact radiotracer recoverable from tumor, 1 h post injection","[5]; U87MG xenograft mice, tail vein 200–400 µCi, tumor homogenate in DMF, reversed-phase HPLC and gamma counting",< 40%
same,"metabolic stability, kidneys, 1 h post injection","[5]; kidney homogenate, radio-HPLC, result in words",a hydrophilic metabolite (or free copper) is responsible for the majority of the radioactive signal
same,"metabolic stability, urine, 1 h post injection","[5]; urine samples, radio-HPLC, result in words",intact knottin radiotracer is excreted through the bladder
same,"tumor uptake, 1 h post injection",[6],0.82±0.05 %ID/g
"CSCC[C@@H]1NC(=O)[C@H](CC(=O)O)NC(=O)CNC(=O)[C@H](CCCNC(=N)N)NC(=O)[C@H](C)NC(=O)[C@H](CCC(=O)O)NC(=O)[C@H](CCCNC(=N)N)NC(=O)[C@@H]2CSSC[C@@H]3NC(=O)[C@H](CO)NC(=O)[C@H]([C@@H](C)O)NC(=O)[C@@H]4CCCN4C(=O)[C@H](C)NC(=O)[C@H](Cc4c[nH]c5ccccc45)NC(=O)[C@H](CC(=O)O)NC(=O)CNC(=O)[C@H](CCCNC(=N)N)NC(=O)CNC(=O)[C@H](CCC(N)=O)NC(=O)[C@@H]4CCCN4C(=O)[C@@H](NC(=O)CNC(=O)CN4CCN(CC(=O)O)CCN(CC(=O)O)CCN(CC(=O)O)CC4)CSSC[C@H](NC(=O)CNC(=O)[C@H](C)NC(=O)[C@H](CC(C)C)NC(=O)[C@H](CSSC[C@@H](C(=O)NCC(N)=O)NC(=O)[C@H]([C@@H](C)O)NC(=O)[C@H](CCCNC(=N)N)NC(=O)[C@@H]4CCCN4C1=O)NC(=O)[C@H](CC(=O)O)NC(=O)[C@H](CO)NC(=O)[C@H](CC(=O)O)NC(=O)[C@H](CCC(N)=O)NC(=O)[C@H](CO)NC3=O)C(=O)N[C@@H](C(C)C)C(=O)N2 [DOTA-3-4A] ({DOTA}-GCPQGRGDWAPTSCSQDSDCLAGCVCREARGDMPRTCG-NH2; disulfide 2-24, 14-26, 20-37)",IC50,[7],8 ± 1 nM
c(RGDyK),IC50,[8],203 ± 32 nM
"ECESGPCCRNCKFLKEGTICKRARGDDMDDYCNGKTCDCPRNPHKGPAT (disulfide 2-11, 7-32, 8-37, 20-39 (inferred)) [Echistatin, reference compound]",IC50,[7],4.9 ± 0.1 nM
